Source: patent US20260275317A1, “CHIMERIC ENDOLYSINS WITH ACTIVITY AGAINST STREPTOCOCCI AND STAPHYLOCOCCI” (UNIVERSITEIT GENT, priority 2023, published 2026)

How the values were obtained:
[1] = tested on: S. uberis, S. aureus, S. agalactiae and S. dysgalactiae; experiment: 2 h time killing assay in PBS and UHT-milk, relative in vitro scoring; type: cell-based; conditions: 0.25 μM
Protocol: Concerning the time killing assay, an overnight bacterial culture was diluted 1:10 for S. uberis, S. agalactiae-& dysgalactiae or 1:100 for S. aureus in PBS or UHT-pasteurized whole cow's milk. A volume of 10 μL thereof was combined with an equal amount of chimeric endolysin in PBS (or only PBS as negative control) in triplicate and incubated in a covered 96-well microtiter plate at 37° C. for 2 h. […] Finally, these fractions were serially diluted 1:10 in PBS. 5 μL of each fraction was spotted on TSA or BHI-agar and incubated overnight at 37° C. The following day, colony forming units (CFU) were counted and converted to CFU/mL to calculate logarithmic reductions in comparison with the negative control. The relative scores were calculated by dividing the observed logarithmic reduction for each endolysin by the maximal reduction observed for that specific condition and strain. Next, this value was divided by the number of conditions and strains tested (i.e., 8=4 bacterial strains×2 conditions (PBS/UHT-milk)). As such, the best performing candidate in each individual assay received a score of 0.125 (=(1/1)/8). […] Turbidity reduction assays were performed by combining 100 μL of overnight grown bacterial cells with an equal volume of purified enzyme at the desired concentration. Bacterial cells were washed with PBS and resuspended in a 1:1 ratio with enzyme to an OD600 of approximately 1.0. Next, the OD600 was measured using a Tecan infinite 200 PRO plate reader (Tecan, Switzerland) every 15 seconds at 37° C., shaking the 96-well plate between each measurement.
Stationary phase S. uberis 0140J or S. aureus N305 and one randomly chosen clinical isolate of S. uberis, S. aureus, S. agalactiae and S. dysgalactiae were challenged with a final concentration of 0.25 μM endolysin in a 2 h time killing assay (TKA) in both phosphate buffered saline (PBS) and ultra-high temperature pasteurized whole cow's milk (UHT-milk).

[2] = tested on: S. uberis in mastitic raw cow's milk; experiment: Challenge of mastitic raw cow's milk; type: cell-based, Streptococcus uberis; conditions: milk of 4 cows, 8 h; 0.5 μM NC5, 50 μg/mL cloxacillin or both
Protocol: Raw cow's milk from S. uberis infected dairy cows was supplied by the milk control center of Flanders (MCC Vlaanderen). Upon arrival, the milk was serially diluted and plated on BHI agar to determine the bacterial load. Only milk with >10^5 […] CFU/mL S. uberis was included as a selection criterium. If needed, the raw milk was incubated during 8 h at 37° C. to artificially increase the initial bacterial load. […] Upon incubation at 37° C., every 2 h, 20 μL was transferred from each well to 180 μL dPBS, serially diluted and plated on BHI agar. Plates were incubated overnight and CFU/mL were calculated the next day. Undiluted, mastitic milk was always pipetted with ClipTip Pipette Tips (Westburg, The Netherlands) due to high viscosity. Mastitis isolates were confirmed as S. uberis by MALDI-TOF MS biotyping.

[3] = tested on: S. uberis GCC ST-143 biofilm; experiment: Biofilm eradication assay; type: cell-based, Streptococcus uberis; conditions: 1.5 μM, 2 h30, 37° C.
Protocol: Biofilms were grown by transferring mid-log phase bacteria (OD600=0.6) grown in brain heart infusion (BHI) (Oxoid, Belgium) containing 0.25% α-D-glucose (ThermoFisher Scientific, USA) to a nunclon delta-treated, U-shaped-bottom 96-well microplate (ThermoFisher Scientific, USA). This whole was incubated for 21-24 h in a box containing a wet tissue. Subsequently, media and planktonic cells were removed and 1.5 µM of chimeric endolysin was allowed to eradicate the biofilms during 2 h30 at 37° C. on a shaker at 120 rpm. […] Biomass was fixated with 100% ethanol (ThermoFisher Scientific, USA) and stained with crystal violet (0.1% crystal violet (Sigma-Aldrich, USA), 5% methanol and isopropanol (ThermoFisher Scientific, USA) in PBS. Triple washing with PBS by inverting the plate was executed before solubilizing the stained biomass in 30% acetic acid (Chem-Lab, Belgium). OD590 nm was measured using a CLARIOstar Plus plate reader (BMG Labtech, The Netherlands). Logarithmic reductions were determined by scraping biomass from the wells with a sterile tooth picker followed by resuspension in PBS, which was subsequently serially diluted and spotted on BHI-agar. CFU/mL were counted after overnight incubation at 37° C.

[4] = tested on: intracellular S. uberis GCC ST-5 in MAC-T and PS cells; experiment: Intracellular killing assay in bovine mammary epithelial cell lines; type: cell-based, Streptococcus uberis; conditions: 2.5 μM, 1 h
Protocol: Cells were seeded in a 24-well plate at 50.000 cells/well with the addition of 25 μg/mL calf skin collagen type I (dissolved in 0.1 M acetic acid) (Sigma-Aldrich, USA) and grown to 100% confluency. Next, medium was removed and cells were washed 3× with dPBS to remove residual P/S. An overnight bacterial culture was washed with dPBS, dissolved in an equal volume of prewarmed cell culture media without the addition of P/S and 0.5 mL thereof was incubated with the cells in every well during 3 h at 37° C. to allow intracellular invasion. Afterwards, this suspension was removed, serially diluted and plated as previously described to determine the amount of extracellular bacteria. Cells were again washed 3× with dPBS and 0.5 mL of prewarmed cell culture media was added with the addition of 200 μg/ml gentamycin (Sigma-Aldrich, USA) and incubated during 3 h at 37° C. to kill remaining extracellular and adhered bacteria. Next, this suspension was likewise removed and plated to check if killing of the extracellular and adhered bacteria was successful. Cells were again 3× washed with dPBS and 2.5 µM of prewarmed NC5 in cell culture media without P/S (buffer exchange performed at 4-8° C. by means of a Pierce™ Protein Concentrator PES 10 kDa MWCO) was added during 1 h to eradicate the intracellular bacteria. […]

B1: NC5: chimeric endolysin SEQ ID NO: 17; HIV-1 TAT + PlySs2 CHAP + Ply1081 CW_7 + PlySs9 amidase_3 (protein)
chain: MYGRKKRRQRRRGATTVNEALNNVRAQVGSGVSVGNGECYALASWYERMISPDATVGLGAGVGWVSGAIGDTISAKNIGSSYNWQANGWTVSTSGPFKAGQIVTLGATPGNPYGHVVIVEAVDGDRLTILEQNYGGKRYPVRNYYSAASYRQQVVHYITPPGTVAQSAPNLAGAGIDQLVQETLAGKYGNGEQRKAALGSQYQAVMAVINGKATAPKKTVDQLAQEVIQGKHGNGEDRKKSLGPDYDAVQKRVTEILKGSPSGNIPKTPSDAPKSEVVNSSTEPKTEETGANGKATDTKITKGSGKHLVICGHGQGRTGYDPGAVNAKLGITEAGKVRELSKLMSKYSGQQIDFITEQNVYDYRSITSIGKGYDSITELHFNAFNGSAKGTEVLIQSSLEADKEDMAILSLLSRYFQNRGIKKVDWLYNANQAASRGYTYRLVEIAFIDNEQDMAIFENKKEDIAKGLVSAITGVEVKTIVPSPPSSTVGSSGTPSKSIYLVGDSLRVLPHATHYQTGQKIANWVKGRTYKILQVKNVHQSNSKRAYLLDGIKSWVLEQDVEGTTKGHSKYHHHHHH
ranking by cumulative relative in vitro score [1]: overall best performing candidates
log10 reduction of S. uberis versus PBS control [2]: caused a log10 reduction in all mastitic milk samples after 8 h
reduction of biofilm mass (crystal violet) [3]: significant (p<0.001) reduction of the biofilm mass
Δ Log10 reduction of biofilm CFU [3]: 1.17±0.39 Log10
Δ Log10 reduction of intracellular S. uberis ([4]; infected MAC-T): 1.62±0.05 Log10
Δ Log10 reduction of intracellular S. uberis ([4]; infected PS, remaining bacteria at or below detection limit 200 CFU/mL): at least 2.12±0.08 Log10
